From IntAct's records for PubMed 17719540

B1: Type 3 secretion system translocon protein SctE (Shigella flexneri), P18011 (parent)
chain: MHNVSTTTTGFPLAKILTSTELGDNTIQAANDAANKLFSLTIADLTANQNINTTNAHSTSNILIPELKAPKSLNASSQLTLLIGNLIQILGEKSLTALTNKITAWKSQQQARQQKNLEFSDKINTLLSETEGLTRDYEKQINKLKNADSKIKDLENKINQIQTRLSELDPESPEKKKLSREEIQLTIKKDAAVKDRTLIEQKTLSIHSKLTDKSMQLEKEIDSFSAFSNTASAEQLSTQQKSLTGLASVTQLMATFIQLVGKNNEESLKNDLALFQSLQESRKTEMERKSDEYAAEVRKAEELNRVMGCVGKILGALLTIVSVVAAAFSGGASLALAAVGLALMVTDAIVQAATGNSFMEQALNPIMKAVIEPLIKLLSDAFTKMLEGLGVDSKKAKMIGSILGAIAGALVLVAAVVLVATVGKQAAAKLAENIGKIIGKTLTDLIPKFLKNFSSQLDDLITNAVARLNKFLGAAGDEVISKQIISTHLNQAVLLGESVNSATQAGGSVASAVFQNSASTNLADLTLSKYQVEQLSKYISEAIEKFGQLQEVIADLLASMSNSQANRTDVAKAILQQTTA

Variants of: B1
Conditions: with md2l2_human MAD2L2, Q9UI95
Sequence of md2l2_human MAD2L2, Q9UI95 (Q9UI95 whole entry): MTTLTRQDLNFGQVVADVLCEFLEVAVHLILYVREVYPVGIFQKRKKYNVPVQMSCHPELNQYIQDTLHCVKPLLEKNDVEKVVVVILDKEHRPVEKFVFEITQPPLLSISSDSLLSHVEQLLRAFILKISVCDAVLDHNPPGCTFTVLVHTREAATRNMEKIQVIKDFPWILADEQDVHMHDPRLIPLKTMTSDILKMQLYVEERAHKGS

Row | Variant | effect of a mutation on the interaction
1 | N61A | decreasing interaction

Variants of: B1
Conditions: with ipgc_shifl ipgC

Row | Variant | effect of a mutation on the interaction
2 | L67A | decreasing interaction
